± gives the uncertainty stated by the source.

The nature of the series: abundance fitness (aPCA) (normalised: wild type 0, dead -1); higher = more abundant; growth selection in yeast, the domain comes from the species named. To be noted: Homo sapiens.
As for “E3 ubiquitin-protein ligase NEDD4 A851D, P46934”, the abundance fitness was -0.043 ± 0.04.
“E3 ubiquitin-protein ligase NEDD4 E869I, P46934” yielded an abundance fitness of -0.137 ± 0.071.
Take “E3 ubiquitin-protein ligase NEDD4 F857Y, P46934”: the abundance fitness amounted to 0.013 ± 0.048.
Next, “E3 ubiquitin-protein ligase NEDD4 H850V, P46934”: -0.155 ± 0.055; “E3 ubiquitin-protein ligase NEDD4 I859V, P46934”: -0.074 ± 0.065; “E3 ubiquitin-protein ligase NEDD4 K844D, P46934”: -0.053 ± 0.031.
To “E3 ubiquitin-protein ligase NEDD4 K864R, P46934” belongs -0.042 ± 0.053.
“E3 ubiquitin-protein ligase NEDD4 N853D, P46934” returned an abundance fitness of -0.116 ± 0.071.
Next, “E3 ubiquitin-protein ligase NEDD4 P852S, P46934”: -0.058 ± 0.055; “E3 ubiquitin-protein ligase NEDD4 R849K, P46934”: 0.052 ± 0.062.
Next, “E3 ubiquitin-protein ligase NEDD4 T863Q, P46934”: -0.511 ± 0.1; “E3 ubiquitin-protein ligase NEDD4 V848I, P46934”: -0.103 ± 0.075.

The values above are taken from the Human Domainome abundance scans (Beltran et al. 2025).
